T1: human TRPV6b expressed in LnCaP cells (transfected with pCAGS-IRES-hTRPV6b) (human), Q9H1D0
T1 chain: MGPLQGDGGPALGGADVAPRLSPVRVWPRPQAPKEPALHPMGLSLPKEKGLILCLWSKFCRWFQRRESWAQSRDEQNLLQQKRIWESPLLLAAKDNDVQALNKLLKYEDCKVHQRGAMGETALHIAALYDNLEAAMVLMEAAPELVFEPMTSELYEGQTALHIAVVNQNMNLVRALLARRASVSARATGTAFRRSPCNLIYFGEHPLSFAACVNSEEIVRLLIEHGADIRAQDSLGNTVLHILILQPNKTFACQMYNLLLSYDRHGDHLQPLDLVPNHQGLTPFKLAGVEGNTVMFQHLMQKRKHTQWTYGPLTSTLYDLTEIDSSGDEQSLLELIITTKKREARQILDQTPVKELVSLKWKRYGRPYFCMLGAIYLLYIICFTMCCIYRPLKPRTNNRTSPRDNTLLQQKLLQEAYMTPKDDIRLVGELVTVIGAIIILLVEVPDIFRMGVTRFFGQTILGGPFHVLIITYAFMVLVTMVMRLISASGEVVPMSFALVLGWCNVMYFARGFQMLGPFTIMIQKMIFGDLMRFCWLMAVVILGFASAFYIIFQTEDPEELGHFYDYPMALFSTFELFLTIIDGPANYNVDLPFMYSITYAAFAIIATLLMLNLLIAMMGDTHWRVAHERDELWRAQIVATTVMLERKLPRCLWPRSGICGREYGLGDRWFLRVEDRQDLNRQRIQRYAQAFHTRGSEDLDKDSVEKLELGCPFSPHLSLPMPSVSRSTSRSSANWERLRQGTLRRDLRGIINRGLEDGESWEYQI


How the values were obtained:
[1] = biological target: T1, human TRPV6b expressed in LnCaP cells …
[2] = biological target: T1, human TRPV6b expressed in LnCaP cells …; experiment: cell-based or functional assay

Binder | Kd [1] [nM] | inhibition constant of calcium current (whole-cell patch clamp) [2] [nM]
EGKLSSNDTEGGLCKEFLHPSKVDLPR (modifications not checked) [SorC27] | 140 | 100
KEFLHPSKVDLPR (modifications not checked) [SorC13] | 100 | 100
